Test results as given in article PMC4156536.

Molecular target: RyR1 with a His10 tag inserted at position 500 (His^500-RyR1) (rabbit) (UniProt P11716)
Assay: FRET or BRET

Chain of UniProt P11716 (P11716 whole entry): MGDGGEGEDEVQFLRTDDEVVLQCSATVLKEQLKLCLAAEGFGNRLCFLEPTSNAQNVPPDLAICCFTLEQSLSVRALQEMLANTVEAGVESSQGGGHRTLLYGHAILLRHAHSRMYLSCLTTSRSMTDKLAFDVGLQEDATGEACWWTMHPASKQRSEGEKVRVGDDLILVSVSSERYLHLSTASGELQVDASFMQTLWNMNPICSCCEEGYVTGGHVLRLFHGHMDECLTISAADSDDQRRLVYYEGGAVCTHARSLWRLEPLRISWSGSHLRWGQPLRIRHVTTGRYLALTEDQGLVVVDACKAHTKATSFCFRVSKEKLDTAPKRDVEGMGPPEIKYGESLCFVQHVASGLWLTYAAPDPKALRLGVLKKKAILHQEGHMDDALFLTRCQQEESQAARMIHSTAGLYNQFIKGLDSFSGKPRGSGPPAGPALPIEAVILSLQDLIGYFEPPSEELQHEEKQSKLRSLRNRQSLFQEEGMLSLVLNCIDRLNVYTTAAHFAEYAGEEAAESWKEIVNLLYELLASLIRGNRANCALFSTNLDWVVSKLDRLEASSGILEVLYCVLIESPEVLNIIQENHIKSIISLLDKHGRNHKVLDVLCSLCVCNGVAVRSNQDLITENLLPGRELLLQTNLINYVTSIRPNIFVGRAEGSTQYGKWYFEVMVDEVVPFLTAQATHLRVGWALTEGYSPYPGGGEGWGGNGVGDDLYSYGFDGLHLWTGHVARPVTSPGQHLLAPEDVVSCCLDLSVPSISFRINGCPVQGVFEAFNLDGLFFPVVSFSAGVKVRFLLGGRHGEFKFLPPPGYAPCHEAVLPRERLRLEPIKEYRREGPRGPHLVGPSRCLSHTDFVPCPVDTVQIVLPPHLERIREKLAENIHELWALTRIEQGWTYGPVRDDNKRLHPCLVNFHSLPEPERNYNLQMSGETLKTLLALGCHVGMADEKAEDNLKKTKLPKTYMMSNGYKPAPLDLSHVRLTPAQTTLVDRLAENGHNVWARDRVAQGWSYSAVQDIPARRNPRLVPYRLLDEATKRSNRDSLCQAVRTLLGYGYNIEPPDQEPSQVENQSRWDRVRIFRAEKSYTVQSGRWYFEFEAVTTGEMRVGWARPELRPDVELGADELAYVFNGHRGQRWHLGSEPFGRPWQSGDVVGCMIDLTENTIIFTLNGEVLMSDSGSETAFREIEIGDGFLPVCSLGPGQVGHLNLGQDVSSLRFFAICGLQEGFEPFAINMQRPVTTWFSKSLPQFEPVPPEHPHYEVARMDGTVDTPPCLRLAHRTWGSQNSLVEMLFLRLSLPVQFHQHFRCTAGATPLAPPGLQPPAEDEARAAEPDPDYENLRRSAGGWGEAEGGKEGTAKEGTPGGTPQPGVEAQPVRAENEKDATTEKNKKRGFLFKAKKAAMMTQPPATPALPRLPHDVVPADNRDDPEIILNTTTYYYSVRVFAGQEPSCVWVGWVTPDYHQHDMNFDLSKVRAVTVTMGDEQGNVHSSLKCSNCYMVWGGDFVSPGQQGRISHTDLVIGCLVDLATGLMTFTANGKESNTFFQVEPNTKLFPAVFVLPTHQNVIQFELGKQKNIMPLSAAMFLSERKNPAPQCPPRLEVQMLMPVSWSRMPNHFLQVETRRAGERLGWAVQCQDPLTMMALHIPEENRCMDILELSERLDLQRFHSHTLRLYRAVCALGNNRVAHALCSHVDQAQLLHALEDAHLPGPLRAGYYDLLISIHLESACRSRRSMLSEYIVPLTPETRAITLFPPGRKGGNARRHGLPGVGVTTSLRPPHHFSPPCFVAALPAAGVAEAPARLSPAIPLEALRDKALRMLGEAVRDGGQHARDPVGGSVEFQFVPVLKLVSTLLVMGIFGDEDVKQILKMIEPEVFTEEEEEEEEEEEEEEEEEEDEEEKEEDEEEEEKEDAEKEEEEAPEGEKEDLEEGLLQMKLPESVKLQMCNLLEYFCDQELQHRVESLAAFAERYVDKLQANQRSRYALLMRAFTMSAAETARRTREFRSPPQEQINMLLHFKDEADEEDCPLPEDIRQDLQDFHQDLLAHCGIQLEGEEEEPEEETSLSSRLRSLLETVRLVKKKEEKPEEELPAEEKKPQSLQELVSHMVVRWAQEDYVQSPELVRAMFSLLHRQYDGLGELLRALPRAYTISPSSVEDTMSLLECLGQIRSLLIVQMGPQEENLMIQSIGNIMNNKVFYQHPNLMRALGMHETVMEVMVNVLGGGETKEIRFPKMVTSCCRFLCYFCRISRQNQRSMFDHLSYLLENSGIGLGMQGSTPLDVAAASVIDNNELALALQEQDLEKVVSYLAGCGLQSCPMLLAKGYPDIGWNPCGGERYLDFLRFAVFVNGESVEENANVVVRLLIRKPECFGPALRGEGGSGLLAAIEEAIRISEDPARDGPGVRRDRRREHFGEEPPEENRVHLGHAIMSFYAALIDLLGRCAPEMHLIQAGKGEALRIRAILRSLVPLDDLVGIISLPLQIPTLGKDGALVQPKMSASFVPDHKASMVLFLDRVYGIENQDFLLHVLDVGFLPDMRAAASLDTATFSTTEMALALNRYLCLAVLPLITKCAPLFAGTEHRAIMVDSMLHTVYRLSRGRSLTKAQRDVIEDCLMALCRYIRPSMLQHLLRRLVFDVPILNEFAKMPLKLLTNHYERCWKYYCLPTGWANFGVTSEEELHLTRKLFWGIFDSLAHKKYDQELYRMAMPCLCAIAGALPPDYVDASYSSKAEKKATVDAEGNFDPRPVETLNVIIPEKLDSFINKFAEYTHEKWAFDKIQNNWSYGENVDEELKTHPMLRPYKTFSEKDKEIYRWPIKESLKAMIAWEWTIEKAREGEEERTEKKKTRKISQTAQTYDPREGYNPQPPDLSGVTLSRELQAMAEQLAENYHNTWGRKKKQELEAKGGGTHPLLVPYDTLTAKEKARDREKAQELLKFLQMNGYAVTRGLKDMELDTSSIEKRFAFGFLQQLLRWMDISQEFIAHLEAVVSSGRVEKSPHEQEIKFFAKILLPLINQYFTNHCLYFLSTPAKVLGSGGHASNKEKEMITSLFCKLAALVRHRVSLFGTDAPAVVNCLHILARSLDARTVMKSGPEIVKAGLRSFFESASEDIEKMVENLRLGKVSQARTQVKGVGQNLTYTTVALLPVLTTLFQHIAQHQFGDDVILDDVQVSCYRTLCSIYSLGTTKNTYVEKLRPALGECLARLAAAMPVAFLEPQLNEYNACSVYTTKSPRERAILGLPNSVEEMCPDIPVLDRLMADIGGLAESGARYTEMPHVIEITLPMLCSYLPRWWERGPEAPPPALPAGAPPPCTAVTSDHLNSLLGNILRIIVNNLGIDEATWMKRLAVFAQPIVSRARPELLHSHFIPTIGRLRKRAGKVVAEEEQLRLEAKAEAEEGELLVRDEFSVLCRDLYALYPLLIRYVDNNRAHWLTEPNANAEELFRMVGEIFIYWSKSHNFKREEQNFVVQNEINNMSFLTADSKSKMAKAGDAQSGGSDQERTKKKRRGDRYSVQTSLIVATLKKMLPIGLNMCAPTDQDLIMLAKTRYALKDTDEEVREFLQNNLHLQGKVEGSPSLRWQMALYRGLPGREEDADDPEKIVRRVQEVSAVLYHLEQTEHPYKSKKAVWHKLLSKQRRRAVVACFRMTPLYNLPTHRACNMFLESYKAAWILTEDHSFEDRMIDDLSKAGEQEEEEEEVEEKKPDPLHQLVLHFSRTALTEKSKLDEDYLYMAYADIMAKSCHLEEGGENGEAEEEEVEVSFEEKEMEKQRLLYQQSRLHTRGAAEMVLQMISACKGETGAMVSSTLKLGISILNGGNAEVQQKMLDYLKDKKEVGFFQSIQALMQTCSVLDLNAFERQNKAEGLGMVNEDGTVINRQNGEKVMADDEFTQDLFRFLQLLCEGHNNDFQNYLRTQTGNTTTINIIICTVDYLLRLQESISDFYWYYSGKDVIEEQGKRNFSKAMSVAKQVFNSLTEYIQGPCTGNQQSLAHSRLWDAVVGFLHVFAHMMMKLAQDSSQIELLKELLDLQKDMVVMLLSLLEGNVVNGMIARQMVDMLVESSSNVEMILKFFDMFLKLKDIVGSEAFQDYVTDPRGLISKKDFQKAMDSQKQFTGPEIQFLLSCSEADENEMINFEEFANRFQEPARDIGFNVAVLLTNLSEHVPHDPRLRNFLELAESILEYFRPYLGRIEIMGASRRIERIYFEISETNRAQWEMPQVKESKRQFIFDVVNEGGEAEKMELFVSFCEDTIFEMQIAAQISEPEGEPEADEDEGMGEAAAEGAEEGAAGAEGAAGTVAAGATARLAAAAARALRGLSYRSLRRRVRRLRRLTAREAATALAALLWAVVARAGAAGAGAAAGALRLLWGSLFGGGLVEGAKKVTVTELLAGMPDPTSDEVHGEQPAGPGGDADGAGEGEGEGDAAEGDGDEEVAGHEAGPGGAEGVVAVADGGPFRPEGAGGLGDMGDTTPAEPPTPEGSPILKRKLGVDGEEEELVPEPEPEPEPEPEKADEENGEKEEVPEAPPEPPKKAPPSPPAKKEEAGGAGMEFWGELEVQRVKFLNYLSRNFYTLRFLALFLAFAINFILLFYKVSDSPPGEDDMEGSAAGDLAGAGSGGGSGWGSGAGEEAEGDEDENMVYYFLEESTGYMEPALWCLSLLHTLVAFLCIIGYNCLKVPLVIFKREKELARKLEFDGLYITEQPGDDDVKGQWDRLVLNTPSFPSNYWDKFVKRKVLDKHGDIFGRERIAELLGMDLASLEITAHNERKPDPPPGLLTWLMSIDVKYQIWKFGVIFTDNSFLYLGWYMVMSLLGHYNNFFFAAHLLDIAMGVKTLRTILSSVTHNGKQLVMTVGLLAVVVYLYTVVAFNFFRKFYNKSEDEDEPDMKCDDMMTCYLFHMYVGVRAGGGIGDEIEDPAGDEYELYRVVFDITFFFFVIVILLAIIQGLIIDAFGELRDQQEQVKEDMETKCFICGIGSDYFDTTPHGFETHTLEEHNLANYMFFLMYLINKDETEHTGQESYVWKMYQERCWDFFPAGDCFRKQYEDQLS

## FKBP12.6 with AF488 conjugated to amino acid residue 14 (D14-FKBP) (from UniProt P68106 1-108) (natural protein)
  FRET efficiency (AF488 on FKBP to Cy3NTA on the His10 tag): 0.18
